According to patent publication US20200317768A1 (published 2020):
Positions count from the first letter of the chain named.

T1: cynomolgus monkey FcγRIIa1 extracellular domain, His-tagged (cynomolgus monkey)
T1 construct: also called cyno FcγRIIa1; cynoFcgRIIa1; not shown: C-terminal His-tag
T1 chain: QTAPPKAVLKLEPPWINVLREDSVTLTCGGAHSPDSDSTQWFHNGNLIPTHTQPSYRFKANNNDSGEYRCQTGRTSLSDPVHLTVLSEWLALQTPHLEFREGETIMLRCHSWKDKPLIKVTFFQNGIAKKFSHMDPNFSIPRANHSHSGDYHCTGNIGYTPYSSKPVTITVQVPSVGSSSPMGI

T2: cynomolgus monkey FcγRIIa2 extracellular domain, His-tagged (cynomolgus monkey)
T2 construct: also called cyno FcγRIIa2; cynoFcgRIIa2; not shown: C-terminal His-tag
T2 chain: T1 chain with P95T, T121A, I127K, A128S, K130N, D135N, R142Q

T3: cynomolgus monkey FcγRIIa3 extracellular domain, His-tagged (cynomolgus monkey)
T3 construct: also called cyno FcγRIIa3; cynoFcgRIIa3; not shown: C-terminal His-tag
T3 chain: T1 chain with P95T, T121A, A128S, H133P, D135N

T4: cynomolgus monkey FcγRIIb extracellular domain, His-tagged (cynomolgus monkey)
T4 construct: also called cyno FcγRIIb; cynoFcγRIIb; not shown: C-terminal His-tag
T4 chain: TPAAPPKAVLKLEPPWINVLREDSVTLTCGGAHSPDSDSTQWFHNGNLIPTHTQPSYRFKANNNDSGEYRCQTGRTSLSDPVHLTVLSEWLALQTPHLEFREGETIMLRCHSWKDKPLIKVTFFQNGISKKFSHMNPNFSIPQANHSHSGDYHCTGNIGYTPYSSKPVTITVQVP

T5: cynomolgus monkey FcγRIIIaS extracellular domain, His-tagged (cynomolgus monkey, UniProt Q8SPW2 21-206 at identity 1.00))
T5 construct: also called cyno FcγRIIIaS; cynoFcγRIIIaS; not shown: C-terminal His-tag
T5 chain: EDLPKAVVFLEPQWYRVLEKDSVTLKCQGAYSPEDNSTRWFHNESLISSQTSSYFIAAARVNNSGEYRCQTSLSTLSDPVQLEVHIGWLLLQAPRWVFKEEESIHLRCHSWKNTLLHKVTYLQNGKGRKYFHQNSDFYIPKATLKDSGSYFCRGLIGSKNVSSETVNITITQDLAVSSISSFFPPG

T6: human FcγRIIaH extracellular domain, His-tagged (human, UniProt P12318 34-217)
T6 construct: also called human FcγRIIa (type H); FcgRIIaH; not shown: C-terminal His-tag
T6 sequence: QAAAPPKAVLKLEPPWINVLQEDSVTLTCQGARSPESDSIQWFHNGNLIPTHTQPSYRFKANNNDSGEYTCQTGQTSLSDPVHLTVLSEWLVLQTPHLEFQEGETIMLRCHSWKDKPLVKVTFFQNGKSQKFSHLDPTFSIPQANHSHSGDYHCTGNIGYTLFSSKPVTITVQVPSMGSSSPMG

T7: human FcγRIIaR extracellular domain, His-tagged (human, UniProt P12318 34-217)
T7 construct: also called human FcγRIIa (type R); FcgRIIaR; not shown: C-terminal His-tag
T7 chain: T6 sequence with H134R

T8: human FcγRIIb extracellular domain, His-tagged (human, UniProt P31994 43-217)
T8 construct: also called FcgRIIb (human); not shown: C-terminal His-tag
T8 sequence: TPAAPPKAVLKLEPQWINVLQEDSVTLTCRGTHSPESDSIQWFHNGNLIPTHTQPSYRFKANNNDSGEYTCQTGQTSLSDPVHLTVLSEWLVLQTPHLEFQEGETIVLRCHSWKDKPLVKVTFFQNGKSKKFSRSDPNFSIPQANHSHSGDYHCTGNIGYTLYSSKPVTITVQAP

B1: MS_M103205H795-SG1/M103202L889-SK1 (antibody, human IgG1, kappa)
heavy: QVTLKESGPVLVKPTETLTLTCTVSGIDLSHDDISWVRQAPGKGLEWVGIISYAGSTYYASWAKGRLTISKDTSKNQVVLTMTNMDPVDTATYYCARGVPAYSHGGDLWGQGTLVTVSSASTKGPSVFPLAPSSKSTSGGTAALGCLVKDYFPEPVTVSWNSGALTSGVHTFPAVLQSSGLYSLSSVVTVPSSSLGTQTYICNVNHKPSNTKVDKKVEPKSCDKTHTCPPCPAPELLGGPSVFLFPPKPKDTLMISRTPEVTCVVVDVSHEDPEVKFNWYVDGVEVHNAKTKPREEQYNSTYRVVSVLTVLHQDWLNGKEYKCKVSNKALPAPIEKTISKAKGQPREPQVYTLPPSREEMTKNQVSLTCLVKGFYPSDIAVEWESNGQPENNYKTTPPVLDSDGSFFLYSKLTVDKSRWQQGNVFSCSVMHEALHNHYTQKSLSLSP
light: DIVMTQSPATLSLSPGERATLSCTSSQSVYHANWLSWFQQKPGQPPKLLIYWASTLAYGVPSRFSGSGSGTDFTLTISSLQPEDAATYYCAGGYGGGRYAFGQGTKVEIKRTVAAPSVFIFPPSDEQLKSGTASVVCLLNNFYPREAKVQWKVDNALQSGNSQESVTEQDSKDSTYSLSSTLTLSKADYEKHKVYACEVTHQGLSSPVTKSFNRGEC
notes: Parent antibody with heavy chain constant region SG1; also called MS1032LO06-SG1; copies: 2 + 2
B2: M103205H795-MY447/M103202L889-SK1 (antibody, human IgG1, kappa)
heavy: QVTLKESGPVLVKPTETLTLTCTVSGIDLSHDDISWVRQAPGKGLEWVGIISYAGSTYYASWAKGRLTISKDTSKNQVVLTMTNMDPVDTATYYCARGVPAYSHGGDLWGQGTLVTVSSASTKGPSVFPLAPSSKSTSGGTAALGCLVKDYFPEPVTVSWNSGALTSGVHTFPAVLQSSGLYSLSSVVTVPSSSLGTQTYICNVNHKPSNTKVDKKVEPKSCDKTHTCPPCPAIELLTGPSVFLFPPKPKDTLMISRTPEVTCVVVDVSDEDPEVKFNWYVDGVEVHNAKTKPREEQYNSTYRVVSVLTVLHQDWLNGKEYKCKVSNKALPKPIEKTISKAKGQPREPQVYTLPPSREEMTKNQVSLTCLVKGFYPSDIAVEWESNGQPENNYKTTPPVLDSDGSFFLYSKLTVDKSRWQQGNVFSCSVMHEALHNHYTQKSLSLSP
light: B1 light
notes: copies: 2 + 2
B3: M103205H795-MY441/M103202L889-SK1 (antibody, human IgG1, kappa)
heavy: B2 heavy with I234A
light: B1 light
notes: copies: 2 + 2
B4: M103205H795-MY442/M103202L889-SK1 (antibody, human IgG1, kappa)
heavy: B2 heavy with I234D
light: B1 light
notes: copies: 2 + 2
B5: M103205H795-MY443/M103202L889-SK1 (antibody, human IgG1, kappa)
heavy: B2 heavy with I234E
light: B1 light
notes: copies: 2 + 2
B6: M103205H795-MY448/M103202L889-SK1 (antibody, human IgG1, kappa)
heavy: B2 heavy with I234K
light: B1 light
notes: copies: 2 + 2
B7: M103205H795-MY460/M103202L889-SK1 (antibody, human IgG1, kappa)
heavy: B2 heavy with A233E, I234P
light: B1 light
notes: copies: 2 + 2
B8: M103205H795-MY445/M103202L889-SK1 (antibody, human IgG1, kappa)
heavy: B2 heavy with I234G
light: B1 light
notes: copies: 2 + 2
B9: M103205H795-MY459/M103202L889-SK1 (antibody, human IgG1, kappa)
heavy: B2 heavy with A233D, I234P
light: B1 light
notes: copies: 2 + 2
B10: M103205H795-MY446/M103202L889-SK1 (antibody, human IgG1, kappa)
heavy: B2 heavy with I234H
light: B1 light
notes: copies: 2 + 2
B11: M103205H795-MY265/M103202L889-SK1 (antibody, human IgG1, kappa)
heavy: B2 heavy with I234P
light: B1 light
notes: also called MS103205H795-MY265; copies: 2 + 2
B12: M103205H795-MY444/M103202L889-SK1 (antibody, human IgG1, kappa)
heavy: B2 heavy with I234F
light: B1 light
notes: copies: 2 + 2

Biological target: T1, cynomolgus monkey FcγRIIa1 …
Assay: SPR (BIACORE), captured antibody, FcgR as analyte
Protocol: (§1) The kinetic analysis of interactions between these antibodies and FcγR was carried out using BIACORE® T200 or BIACORE® 4000 (GE Healthcare). HBS-EP+ (GE Healthcare) was used as the running buffer, and the measurement temperature was set to 25° C. A chip produced by immobilizing Protein A. Protein A/G or mouse anti-human IgG kappa light chain (BD Biosciences) onto a Series S Sensor Chip CM4 or CM5 (GE Healthcare) by the amine-coupling method was used. […] After the measurement, the antibody captured on the chip was washed off by allowing reaction with 10 mM glycine-HCl, pH1.5 and 25 mM NaOH so that the chip was regenerated and used repeatedly. The sensorgrams obtained as measurement results were analyzed by the 1:1 Langmuir binding model using the BIACORE® Evaluation Software to calculate the binding rate constant ka (L/mol/s) and dissociation rate constant kd (l/s), and the dissociation constant KD (mol/L) was calculated from these values. […] Regarding such interactions, KD values were calculated using the following 1:1 binding model described in BIACORE® T100 Software Handbook BR1006-48 Edition AE.

| Kd [nM] | Binder |
| --- | --- |
| 3200 | B1 |
| 990 | B2 |
| 3800 | B3 |
| 4400 | B4 |
| 4800 | B5 |
| 9600 | B6 |
| 3100 | B7 |
| 5600 | B8 |
| 5000 | B9 |
| 2500 | B10 |
| 2200 | B11 |
| 1200 | B12 |

Biological target: T2, cynomolgus monkey FcγRIIa2 …
Assay: SPR (BIACORE), captured antibody, FcgR as analyte
Protocol: as §1

| Kd [nM] | Binder |
| --- | --- |
| 5100 | B1 |
| 880 | B2 |
| 3300 | B3 |
| 4200 | B4 |
| 5000 | B5 |
| 7500 | B6 |
| 3100 | B7 |
| 5500 | B8 |
| 4700 | B9 |
| 2200 | B10 |
| 1900 | B11 |
| 1100 | B12 |

Biological target: T3, cynomolgus monkey FcγRIIa3 …
Assay: SPR (BIACORE), captured antibody, FcgR as analyte
Protocol: as §1

| Kd [nM] | Binder |
| --- | --- |
| 17000 | B1 |
| 1050 | B2 |
| 8000 | B3 |
| 6800 | B4 |
| 8800 | B5 |
| 21000 | B6 |
| 5500 | B7 |
| 14000 | B8 |
| 7500 | B9 |
| 4700 | B10 |
| 4800 | B11 |
| 1900 | B12 |

Biological target: T4, cynomolgus monkey FcγRIIb extracellular …
Assay: SPR (BIACORE), captured antibody, FcgR as analyte
Protocol: as §1

| Kd [nM] | Binder |
| --- | --- |
| 1800 | B1 |
| 230 | B2 |
| 880 | B3 |
| 1100 | B4 |
| 1200 | B5 |
| 2300 | B6 |
| 790 | B7 |
| 1400 | B8 |
| 1100 | B9 |
| 630 | B10 |
| 590 | B11 |
| 300 | B12 |

Biological target: T5, cynomolgus monkey FcγRIIIaS …
Assay: SPR (BIACORE), captured antibody, FcgR as analyte
Protocol: as §1

| Kd [nM] | Binder |
| --- | --- |
| 360 | B1 |
| 1100 | B2 |
| 2600 | B3 |
| 2100 | B4 |
| 2600 | B5 |
| 6500 | B6 |
| 2700 | B7 |
| 3500 | B8 |
| 3200 | B9 |
| 2900 | B10 |
| 2000 | B11 |
| 1600 | B12 |

Biological target: T6, human FcγRIIaH extracellular domain, …
Assay: SPR (BIACORE), captured antibody, FcgR as analyte
Protocol: as §1

| Kd [nM] | Binder |
| --- | --- |
| 690 | B1 |
| 97 | B2 |
| 360 | B3 |
| 460 | B4 |
| 530 | B5 |
| 930 | B6 |
| 260 | B7 |
| 560 | B8 |
| 390 | B9 |
| 260 | B10 |
| 210 | B11 |
| 110 | B12 |

Biological target: T7, human FcγRIIaR extracellular domain, …
Assay: SPR (BIACORE), captured antibody, FcgR as analyte
Protocol: as §1

| Kd [nM] | Binder |
| --- | --- |
| 1100 | B1 |
| 98 | B2 |
| 650 | B3 |
| 420 | B4 |
| 640 | B5 |
| 2200 | B6 |
| 550 | B7 |
| 1200 | B8 |
| 560 | B9 |
| 480 | B10 |
| 440 | B11 |
| 140 | B12 |

Biological target: T8, human FcγRIIb extracellular domain, …
Assay: SPR (BIACORE), captured antibody, FcgR as analyte
Protocol: as §1

| Kd [nM] | Binder |
| --- | --- |
| 4600 | B1 |
| 440 | B2 |
| 2800 | B3 |
| 1800 | B4 |
| 2800 | B5 |
| 8400 | B6 |
| 2400 | B7 |
| 4200 | B8 |
| 2500 | B9 |
| 2400 | B10 |
| 2200 | B11 |
| 740 | B12 |

Biological target: T9, human FcγRIIIaV extracellular domain, His-tagged (human, UniProt P08637 17-208)
T9 construct: also called FcgRIIIaV; not shown: C-terminal His-tag
Assay: SPR (BIACORE), captured antibody, FcgR as analyte
Protocol: as §1

T9 sequence (P08637 17-208 F176V): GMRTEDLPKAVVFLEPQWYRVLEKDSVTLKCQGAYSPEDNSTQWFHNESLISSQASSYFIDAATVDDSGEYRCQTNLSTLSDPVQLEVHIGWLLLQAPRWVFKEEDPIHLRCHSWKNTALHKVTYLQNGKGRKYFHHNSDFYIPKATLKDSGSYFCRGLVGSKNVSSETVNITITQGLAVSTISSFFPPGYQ

| Kd [nM] | Binder |
| --- | --- |
| 810 | B1 |
| 4000 | B2 |
| 8100 | B3 |
| 4700 | B4 |
| 5900 | B5 |
| 13000 | B6 |
| 6700 | B7 |
| 9500 | B8 |
| 8700 | B9 |
| 7100 | B10 |
| 54000 | B11 |
| 5200 | B12 |
